Experimental data taken from the RNAGym collection of RNA variant scans (doi:10.7554/elife.80360).

B1: Hairpin Ribozyme (parent)
chain: GUCCUCUUUCACGUGCGCGUGAAAGAGAGAAGUGAACCAGAGAAACACACGUUGUGGUAUAUUACCUGGUA

Variants of: B1
Test: self-cleavage, relative activity (ratio to wild type); higher = more cleavage; co-transcriptional

Variant | self-cleavage
G19U A41C | 0.899
G19U A41G | 0.913
G19U A61C | 0.236
G19U A61G | 0.231
U20A G32C | 0.174
U20A G32U | 0.0356
U20C G69U | 0.23
G21A G25A | 0.239
G21A G25C | 0.358
G19U A36U | 0.628
G19U A49G | 0.545
G19U A49C | 0.18
G21A U62C | 0.199
G21A U62A | 0.135
G19U U55C | 0.226
G21C C38G | 0.154
U20C U67A | 0.213
U20A G27A | 0.385
U20A G27C | 0.175
U20C C37U | 0.756
G21C A39C | 0.463
G21C G69U | 0.155
G19U A45G | 0.228
G19U A45C | 0.292

Variant | self-cleavage
G19U A45U | 0.145
U20A U55A | 0.252
U20A U55G | 0.256
U20A U55C | 0.258
G19U G56C | 0.223
G19U G56A | 0.16
U20G A49G | 0.364
U20G A49C | 0.172
G21A U60G | 0.533
G21A A23G | 0.707
G21A A23C | 0.683
G21A A23U | 0.825
G19U G21C | 0.692
G21C G56A | 0.184
U20C U58G | 0.785
G21C U53G | 0.58
G19U U60C | 1.2
G21A C48G | 0.192
U20G A44C | 0.162
U20G A44G | 0.143
G21C G40A | 0.258
G21C A28C | 0.412
G21C A28G | 0.852
U20A G69A | 0.337

Variant | self-cleavage
G21A U55C | 0.242
G21A U55G | 0.271
U20G G27A | 0.31
U20C U60G | 0.534
G21C C50A | 0.386
G21C C50U | 0.256
U20G U52A | 1.09
U20G U52C | 0.998
G19U U63G | 0.205
G21C A23G | 0.77
U20G U70G | 0.994
G19U G57A | 0.169
U20A C65U | 0.388
G21A G27C | 0.195
G21A G27A | 0.346
G21C A35G | 0.666
G21C G25C | 0.238
G21A A24G | 0.576
G21A A24C | 0.563
U20C A22C | 0.482
U20A U60G | 0.592
G21A A41C | 0.761
G21A A41G | 0.765
U20A A30U | 0.145

Variant | self-cleavage
U20C A26U | 0.692
G21A A45C | 0.16
G21A A45G | 0.177
U20C G68A | 0.251
G21A U70C | 0.758
G21A U70G | 0.821
G19U G34A | 1.19
G21C A26G | 0.528
G21A U58A | 0.533
G21A U58C | 0.916
G21C U52G | 0.654
U20G C37A | 0.186
G19U A71C | 1.39
G19U A71U | 0.738
G19U C37U | 0.588
G19U C66G | 0.22
G21A A44U | 0.215
G21A A44C | 0.116
G21A A44G | 0.142
U20A A61C | 0.156
U20G A47C | 0.299
U20G A47G | 0.0572
U20C U33G | 0.0535
U20C U33A | 0.0957

Variant | self-cleavage
U20A A23C | 0.734
U20C C50A | 0.206
G21A G51U | 0.99
G21A G51C | 0.771
G21A G51A | 1.04
G19U G51A | 0.956
G19U G51U | 0.947
G19U G51C | 0.707
U20C A41C | 1.11
U20G G68A | 0.14
U20A G42A | 0.226
U20A G42U | 0.346
U20C C48A | 0.221
G21A C46G | 0.254
G21A C46U | 0.173
U20C A71G | 1.12
G21C G57C | 0.143
U20A A59C | 0.0988
U20A A59G | 0.182
U20C U53C | 0.998
U20C A59U | 0.157
U20C A59G | 0.149
U20A U53G | 0.673
U20A U53C | 0.682

Variant | self-cleavage
U20A U63A | 0.261
U20A U63G | 0.263
U20C A24C | 0.612
U20A A28G | 0.833
U20A A28C | 0.482
U20G A24G | 0.673
U20G G29U | 0.101
G19U A44G | 0.163
G21C A49G | 0.302
G21C A49C | 0.17
G21C A49U | 0.293
U20G A28C | 0.462
U20G A28G | 1.01
U20G A59U | 0.123
U20G A36G | 0.569
G21A A30U | 0.144
G21A A30G | 0.238
U20C G42U | 0.172
G21C A22G | 0.786
G19U U20C | 0.731
U20A A44C | 0.202
U20G U58G | 0.835
U20A G40U | 0.153
U20G C38G | 0.119

Variant | self-cleavage
U20A G34U | 1.29
U20A U67G | 0.256
U20A A31G | 0.466
G19U U67G | 0.272
G19U U67A | 0.131
G19U A64U | 0.217
G21C A24U | 0.585
U20G U62G | 0.323
U20G U62A | 0.149
U20C A49G | 0.524
G19U C50U | 0.33
U20G A45C | 0.16
G21U A24G | 0.805
G21A C50G | 0.217
G21C G54C | 0.305
G21C G29A | 0.0976
G21C G29C | 0.119
U20A U58C | 0.847
U20A C46A | 0.265
U20A C46G | 0.162
U20A C66G | 0.0899
U20A C66U | 0.487
U20G C46G | 0.219
U20G C46A | 0.229

Variant | self-cleavage
G19U U58A | 0.607
U20G A23C | 0.83
G21C A61U | 0.304
G21C A61G | 0.104
U20C G29A | 0.181
U20C G27U | 0.181
G21A G56C | 0.2
G21A G57U | 0.232
G21A G57C | 0.193
U20G C66U | 0.411
U20G G56A | 0.0796
U20G G56U | 0.191
U20C A43G | 0.105
G21C A71U | 0.794
U20C G57A | 0.167
U20C G57U | 0.341
G21C G51C | 0.803
G21C G51U | 0.865
U20A A24G | 0.895
U20A G57U | 0.259
G21U | 0.844
G21C | 0.812
G21A | 0.809
G19U G27C | 0.318

Variant | self-cleavage
G19U G27U | 0.262
U20A | 0.869
U20G | 0.879
U20C | 0.963
U20G G57C | 0.123
U20C G54A | 0.544
U20C G54U | 0.386
G21A G29A | 0.166
U20G A43C | 0.214
U20G A43G | 0.206
U20G A43U | 0.189
G21C U70A | 0.779
G21C U70C | 0.965
G19U G68U | 0.338
G21A G69U | 0.197
G21A G69C | 0.246
G21C U55C | 0.204
G21C U55G | 0.248
G21C U55A | 0.165
G21A G68U | 0.165
U20C G21C | 0.778
U20G G25A | 0.469
U20C G40C | 0.218
U20G U63G | 0.265

Variant | self-cleavage
U20G U63A | 0.171
U20G U63C | 0.255
U20A C38U | 0.45
U20A C38G | 0.19
G21A U52A | 0.78
U20C A61U | 0.21
G21C C48A | 0.0883
G21C A41G | 0.606
G19U C48A | 0.135
U20C A30G | 0.112
U20G A39U | 0.311
U20A C37U | 0.511
G21C G34A | 1.02
U20G A71C | 1.25
U20A G25C | 0.447
U20C G25U | 0.576
U20C G25C | 0.513
G19U U62C | 0.256
U20G U60G | 0.662
U20C U52G | 1.12
U20C U52C | 1.03
U20C U52A | 0.957
U20G G69C | 0.284
U20G G69A | 0.421

Variant | self-cleavage
U20G G69U | 0.22
U20C G32A | 0.274
U20A G68C | 0.112
U20A A36C | 0.412
U20G C48U | 0.228
U20A U70A | 0.784
U20A U70G | 0.651
U20A A39U | 0.296
U20C A45C | 0.105
U20C A36C | 0.526
U20C A36U | 0.529
G21A C66A | 0.201
U20C A31U | 0.188
U20G U53G | 0.702
U20C U63G | 0.169
U20C U63A | 0.116
U20G G51C | 0.572
U20C G51A | 1.19
G19U C46U | 0.136
G21C G27U | 0.2
G19U G69C | 0.269
G19U G69A | 0.32
U20A U33G | 0.183
U20A U33A | 0.114

Variant | self-cleavage
U20A A35U | 0.872
G21C U62C | 0.334
G21C U62A | 0.206
U20G U33C | 0.109
U20A A64C | 0.163
U20C G34A | 1.15
U20C G34U | 1.32
U20G C65U | 0.374
G21A U67C | 0.248
G21A U67A | 0.23
U20C A44U | 0.115
U20C A44G | 0.204
U20A G56U | 0.114
U20A G51U | 0.833
U20A G51A | 0.765
G21C A31C | 0.0833
G21C A31U | 0.0322
U20A A45U | 0.172
U20C A64G | 0.558
U20C A64C | 0.151
G19U G25U | 0.548
G19U G25C | 0.537
G19U G25A | 0.33
G19U G42U | 0.346

Variant | self-cleavage
G19U G42A | 0.175
G21A A39G | 0.306
G19U A43G | 0.136
G19U A43U | 0.134
U20A A26G | 0.859
U20C U70A | 1.08
U20C U70C | 0.945
G21A A35U | 0.653
G21A G40A | 0.312
G21A G40C | 0.169
U20A C50G | 0.132
U20G A61U | 0.142
G21A A31C | 0.133
G21A A31G | 0.424
U20G G40A | 0.296
U20G G40U | 0.206
G21A A61C | 0.253
U20C A47G | 0.159
U20C A47C | 0.358
G21A G34C | 1.11
U20G A35U | 0.581
U20G A35G | 0.559
G21C C65U | 0.304
G21C C65G | 0.249

Variant | self-cleavage
U20G G21C | 0.75
U20G G21A | 0.846
G19U G29C | 0.0899
U20G A26U | 0.683
G21A U33A | 0.151
G21C G42A | 0.216
G21C G42C | 0.195
G21C U33G | 0.238
G21C U33C | 0.145
U20A U52A | 0.844
U20A U52C | 0.96
G19U G40C | 0.11
G19U A47G | 0.24
G19U A47C | 0.418
U20A A43C | 0.0739
U20G U67G | 0.157
G21A U53G | 0.699
U20A C48U | 0.137
G21C A47G | 0.157
G21A A22C | 0.581
G21A A22U | 0.771
U20G A41G | 0.687
